Assay results reported in paper PMC8320243 (Circulation research, 2021).
Substitutions are numbered along the chain they refer to. Names may count otherwise.

B1: cMyc-tagged RyR2 N-terminus (NT, residues 1-906), wild type (domain or fragment, UniProt Q92736 1-906, looked up)
chain: MADGGEGEDEIQFLRTDDEVVLQCTATIHKEQQKLCLAAEGFGNRLCFLESTSNSKNVPPDLSICTFVLEQSLSVRALQEMLANTVEKSEGQVDVEKWKFMMKTAQGGGHRTLLYGHAILLRHSYSGMYLCCLSTSRSSTDKLAFDVGLQEDTTGEACWWTIHPASKQRSEGEKVRVGDDLILVSVSSERYLHLSYGNGSLHVDAAFQQTLWSVAPISSGSEAAQGYLIGGDVLRLLHGHMDECLTVPSGEHGEEQRRTVHYEGGAVSVHARSLWRLETLRVAWSGSHIRWGQPFRLRHVTTGKYLSLMEDKNLLLMDKEKADVKSTAFTFRSSKEKLDVGVRKEVDGMGTSEIKYGDSVCYIQHVDTGLWLTYQSVDVKSVRMGSIQRKAIMHHEGHMDDGISLSRSQHEESRTARVIRSTVFLFNRFIRGLDALSKKAKASTVDLPIESVSLSLQDLIGYFHPPDEHLEHEDKQNRLRALKNRQNLFQEEGMINLVLECIDRLHVYSSAAHFADVAGREAGESWKSILNSLYELLAALIRGNRKNCAQFSGSLDWLISRLERLEASSGILEVLHCVLVESPEALNIIKEGHIKSIISLLDKHGRNHKVLDVLCSLCVCHGVAVRSNQHLICDNLLPGRDLLLQTRLVNHVSSMRPNIFLGVSEGSAQYKKWYYELMVDHTEPFVTAEATHLRVGWASTEGYSPYPGGGEEWGGNGVGDDLFSYGFDGLHLWSGCIARTVSSPNQHLLRTDDVISCCLDLSAPSISFRINGQPVQGMFENFNIDGLFFPVVSFSAGIKVRFLLGGRHGEFKFLPPPGYAPCYEAVLPKEKLKVEHSREYKQERTYTRDLLGPTVSLTQAAFTPIPVDTSQIVLPPHLERIREKLAENIHELWVMNKIELGWQYGP
B2: cMyc-tagged RyR2 N-terminus (NT, residues 1-906) with R420Q (domain or fragment, UniProt Q92736 1-906, looked up)
chain: B1 chain with R420Q

Molecular target: the molecule itself
Experiment: cross-linking

Row | Protein | stoichiometry N
1 | B1 | 4
2 | B2 | 4
